The values below are quoted from earlier work in PMC12384831.

A word on the Kd: it is the constant that tells how readily two partners part at equilibrium.

The target of this data set is VISTA (Homo sapiens) (UniProt Q9H7M9).

Values joined by “and” are separate entries in the source; they are usually repeats but may differ in a detail not shown here. Identical values can stand only once.

Sequence of UniProt Q9H7M9 (Q9H7M9 33-194): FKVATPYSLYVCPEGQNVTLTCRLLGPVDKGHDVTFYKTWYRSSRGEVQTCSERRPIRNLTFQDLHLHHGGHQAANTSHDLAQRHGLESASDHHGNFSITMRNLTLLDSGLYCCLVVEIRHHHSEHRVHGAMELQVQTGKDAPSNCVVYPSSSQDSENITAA

Turning to IGSF11 (from UniProt Q5DX21), the Kd was 20 nM and 80 nM.
